How the values were obtained:
[1] = compound: O=C1C(Cc2ccccc2)N(S(=O)(=O)c2ccc(Cl)cc2)C(=O)C(Cc2ccccc2)N1S(=O)(=O)c1ccc(Cl)cc1; test: (§1) Competitive inhibition of human MMP2 assessed as Km for substrate at 60 nM preincubated for 60 mins followed by Mca-Pro-Leu-Gly-Leu-Dpa-Ala-Arg-NH substrate addition by Lineweaver-Burk plot analysis (reference value: 10 to 25 nM)
[2] = compound: O=C1C(c2ccccc2)N(S(=O)(=O)c2ccc(Cl)cc2)C(=O)C(c2ccccc2)N1S(=O)(=O)c1ccc(Cl)cc1; test: as §1
[3] = compound: O=C1C(Cc2ccccc2)N(S(=O)(=O)c2ccc(Cl)cc2)C(=O)C(Cc2ccccc2)N1S(=O)(=O)c1ccc(Cl)cc1; test: (§2) Competitive inhibition of human MMP2 assessed as Vmax for substrate at 100 nM preincubated for 60 mins followed by Mca-Pro-Leu-Gly-Leu-Dpa-Ala-Arg-NH substrate addition by Lineweaver-Burk plot analysis (reference value: 3.4 to 3.6 nM/min)
[4] = compound: O=C1C(c2ccccc2)N(S(=O)(=O)c2ccc(Cl)cc2)C(=O)C(c2ccccc2)N1S(=O)(=O)c1ccc(Cl)cc1; test: as §2
[5] = compound: O=C1C(Cc2ccccc2)N(S(=O)(=O)c2ccc(Cl)cc2)C(=O)C(Cc2ccccc2)N1S(=O)(=O)c1ccc(Cl)cc1; test: (§3) Competitive inhibition of human MMP2 assessed as Vmax for substrate at 60 nM preincubated for 60 mins followed by Mca-Pro-Leu-Gly-Leu-Dpa-Ala-Arg-NH substrate addition by Lineweaver-Burk plot analysis (reference value: 3.4 to 3.6 nM/min)
[6] = compound: O=C1C(c2ccccc2)N(S(=O)(=O)c2ccc(Cl)cc2)C(=O)C(c2ccccc2)N1S(=O)(=O)c1ccc(Cl)cc1; test: as §3
[7] = compound: O=C1C(Cc2ccccc2)N(S(=O)(=O)c2ccc(Cl)cc2)C(=O)C(Cc2ccccc2)N1S(=O)(=O)c1ccc(Cl)cc1; test: (§4) Competitive inhibition of human MMP2 assessed as Km for substrate at 100 nM preincubated for 60 mins followed by Mca-Pro-Leu-Gly-Leu-Dpa-Ala-Arg-NH substrate addition by Lineweaver-Burk plot analysis (reference value: 10 to 25 nM)
[8] = compound: O=C1C(c2ccccc2)N(S(=O)(=O)c2ccc(Cl)cc2)C(=O)C(c2ccccc2)N1S(=O)(=O)c1ccc(Cl)cc1; test: as §4

B1: 72 kDa type IV collagenase (Homo sapiens), P08253 (protein)
chain: MEALMARGALTGPLRALCLLGCLLSHAAAAPSPIIKFPGDVAPKTDKELAVQYLNTFYGCPKESCNLFVLKDTLKKMQKFFGLPQTGDLDQNTIETMRKPRCGNPDVANYNFFPRKPKWDKNQITYRIIGYTPDLDPETVDDAFARAFQVWSDVTPLRFSRIHDGEADIMINFGRWEHGDGYPFDGKDGLLAHAFAPGTGVGGDSHFDDDELWTLGEGQVVRVKYGNADGEYCKFPFLFNGKEYNSCTDTGRSDGFLWCSTTYNFEKDGKYGFCPHEALFTMGGNAEGQPCKFPFRFQGTSYDSCTTEGRTDGYRWCGTTEDYDRDKKYGFCPETAMSTVGGNSEGAPCVFPFTFLGNKYESCTSAGRSDGKMWCATTANYDDDRKWGFCPDQGYSLFLVAAHEFGHAMGLEHSQDPGALMAPIYTYTKNFRLSQDDIKGIQELYGASPDIDLGTGPTPTLGPVTPEICKQDIVFDGIAQIRGEIFFFKDRFIWRTVTPRDKPMGPLLVATFWPELPEKIDAVYEAPQEEKAVFFAGNEYWIYSASTLERGYPKPLTSLGLPPDVQRVDAAFNWSKNKKTYIFAGDKFWRYNEVKKKMDPGFPKLIADAWNAIPDNLDAVVDLQGGGHSYFFKGAYYLKLENQSLKSVKFGSIKSDWLGC
**Q.** B1 was tested. Which Km [1] did it give?
**A.** Its Km is 0.024 µM.

**Q.** What about the Km [2] of the same protein?
**A.** Its Km is 0.036 µM.

**Q.** And the Vmax [3]?
**A.** The Vmax was 3.6 nM/min.

**Q.** And the Vmax [4]?
**A.** Its Vmax is 3.4 nM/min.

**Q.** And the Vmax [5]?
**A.** The Vmax was 3.6 nM/min.

**Q.** And the Vmax [6]?
**A.** Its Vmax is 3.4 nM/min.

**Q.** What about the Km [7] of the same protein?
**A.** The Km was 0.048 µM.

**Q.** What about the Km [8] of the same protein?
**A.** Its Km is 0.07 µM.
